Key:
[1] = target: the molecule itself; assay: SEC-MALS; SEC peaks analysed by DLS and SLS/MALS (Dawn Heleos II); purified Redβ proteins injected at 1 mg/ml; species after elution (dilution); without DNA
[2] = target: T1, wt Redβ, Strep-tag II tagged, purified (λ phage), P03698; assay: ITC; Redα (150 μM) injected in 2 μl steps at 3 min intervals into the cell with Redβ (15 μM); 25 °C; 20 mM HEPES, 150 mM sodium chloride, 1 mM magnesium chloride, 0.5 mM TECP, pH 8; single-site binding model; details: remark: other sources report otherwise
T1 chain: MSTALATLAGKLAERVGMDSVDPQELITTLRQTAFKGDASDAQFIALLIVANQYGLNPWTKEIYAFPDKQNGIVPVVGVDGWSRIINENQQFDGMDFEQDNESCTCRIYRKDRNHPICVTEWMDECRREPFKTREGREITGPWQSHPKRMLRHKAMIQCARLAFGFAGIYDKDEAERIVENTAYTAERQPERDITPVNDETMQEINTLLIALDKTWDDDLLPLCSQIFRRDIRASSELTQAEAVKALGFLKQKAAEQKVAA

C3Redβ [3] = target: T2, C3Redβ (phage lambda, UniProt P03698 1-185); assay: EMSA; 10 uM protein, 1 uM DNA; weak ssDNA binding (smear), non-complementary Cy5 oligo added; EMSA: 10 uM protein, 1 uM DNA, 20 mM Tris-HCl pH 7.5, 10 mM NaCl, 10 mM MgCl2, 37 C 30 min (+30 min after complementary oligo), 1.2-1.6% agarose, 2x TBE; details: protein: recombinant; tags: Strep-tag II; N-terminal per Methods, C-terminal per legends; single strand
T2 sequence: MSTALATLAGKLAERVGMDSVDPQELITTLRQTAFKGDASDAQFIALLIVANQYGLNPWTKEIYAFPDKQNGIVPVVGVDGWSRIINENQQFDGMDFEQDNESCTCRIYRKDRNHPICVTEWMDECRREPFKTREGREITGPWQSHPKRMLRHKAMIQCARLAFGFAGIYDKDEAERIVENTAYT

Redβ wt [4] = target: T3, Redβ wt (phage lambda, UniProt P03698 1-261); assay: as above; details: protein: recombinant; single strand
T3 sequence: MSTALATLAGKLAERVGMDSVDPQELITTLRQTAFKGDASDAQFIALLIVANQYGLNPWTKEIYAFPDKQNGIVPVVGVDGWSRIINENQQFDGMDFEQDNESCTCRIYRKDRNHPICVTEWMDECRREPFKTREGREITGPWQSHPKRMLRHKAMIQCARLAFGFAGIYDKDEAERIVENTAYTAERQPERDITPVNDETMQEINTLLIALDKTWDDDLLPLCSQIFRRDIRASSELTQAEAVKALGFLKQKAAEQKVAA

C3Redβ [5] = target: T2, C3Redβ; assay: EMSA; sequential addition of strands; annealed nucleoprotein filament; EMSA: 10 uM protein, 1 uM DNA, 20 mM Tris-HCl pH 7.5, 10 mM NaCl, 10 mM MgCl2, 37 C 30 min (+30 min after complementary oligo), 1.2-1.6% agarose, 2x TBE; details: protein: recombinant; tags: Strep-tag II; N-terminal per Methods, C-terminal per legends; label: 5'-Cy3 on one strand, 5'-Cy5 on the other; 49 bp, 5' overhang 1 nt at each end as printed; annealed by the protein
Redβ wt [6] = target: T3, Redβ wt; assay: as above; details: protein: recombinant; label: 5'-Cy3 on one strand, 5'-Cy5 on the other; 49 bp, 5' overhang 1 nt at each end as printed; annealed by the protein

B1: C3Redβ (1–185), Strep-tag II tagged, purified (domain or fragment, λ phage, UniProt P03698 1-185, looked up)
chain: MSTALATLAGKLAERVGMDSVDPQELITTLRQTAFKGDASDAQFIALLIVANQYGLNPWTKEIYAFPDKQNGIVPVVGVDGWSRIINENQQFDGMDFEQDNESCTCRIYRKDRNHPICVTEWMDECRREPFKTREGREITGPWQSHPKRMLRHKAMIQCARLAFGFAGIYDKDEAERIVENTAYT
notes: Redβ of λ phage, residues 1-185 (C-terminal truncation C3); also called C3 deletion; C3-truncated Redβ; not shown: Strep-tag II, C-terminal, kept
In the case of B1, the “Dist (%) of Species 3 (1 subunit, monomer)” value (“Dist (%)” for short) [1] is reported as 9.3%.

B2: N1Redβ (20–261), Strep-tag II tagged, purified (domain or fragment, λ phage, UniProt P03698 20-261, looked up)
chain: SVDPQELITTLRQTAFKGDASDAQFIALLIVANQYGLNPWTKEIYAFPDKQNGIVPVVGVDGWSRIINENQQFDGMDFEQDNESCTCRIYRKDRNHPICVTEWMDECRREPFKTREGREITGPWQSHPKRMLRHKAMIQCARLAFGFAGIYDKDEAERIVENTAYTAERQPERDITPVNDETMQEINTLLIALDKTWDDDLLPLCSQIFRRDIRASSELTQAEAVKALGFLKQKAAEQKVAA
notes: Redβ of λ phage, residues 20-261 (N-terminal truncation N1); also called N1 deletion; not shown: Strep-tag II, C-terminal, kept
In the case of B2, the “Dist (%)” value [1] is reported as 7.4%.

B3: Redα, Strep-tag II tagged, purified, P03697 1-226 (enzyme)
chain: MTPDIILQRTGIDVRAVEQGDDAWHKLRLGVITASEVHNVIAKPRSGKKWPDMKMSYFHTLLAEVCTGVAPEVNAKALAWGKQYENDARTLFEFTSGVNVTESPIIYRDESMRTACSPDGLCSDGNGLELKCPFTSRDFMKFRLGGFEAIKSAYMAQVQYSMWVTRKNAWYFANYDPRMKREGLHYVVIERDEKYMASFDEIVPEFIEKMDEALAEIGFVFGEQWR
Binder B3 has a Kd [2] of 7.9 µM and a dH [2] of -9.84 kcal/mol.

B4: wt Redβ, Strep-tag II tagged, purified (natural protein, λ phage, UniProt P03698 1-261, looked up)
chain: MSTALATLAGKLAERVGMDSVDPQELITTLRQTAFKGDASDAQFIALLIVANQYGLNPWTKEIYAFPDKQNGIVPVVGVDGWSRIINENQQFDGMDFEQDNESCTCRIYRKDRNHPICVTEWMDECRREPFKTREGREITGPWQSHPKRMLRHKAMIQCARLAFGFAGIYDKDEAERIVENTAYTAERQPERDITPVNDETMQEINTLLIALDKTWDDDLLPLCSQIFRRDIRASSELTQAEAVKALGFLKQKAAEQKVAA
notes: Redβ, single strand annealing protein of λ phage; the ORF cloned into pASK-IBA2; 261 residues by the printed limits of the truncations; also called wild type Redβ; not shown: Strep-tag II, C-terminal, kept
B4 was tested, and the “Dist (%)” value [1] was 68.2%.

CCATCCGCAAAAATCGAGCTATGCAGGGCGATTCTGCTCTAAGCCATCCG (ssDNA) [Cy3 50-mer ssDNA]: binds (C3Redβ [3]); binds (Redβ wt [4]).

B5: 50-mer complementary pair, sequentially added (dsDNA)
DNA 1: CCATCCGCAAAAATCGAGCTATGCAGGGCGATTCTGCTCTAAGCCATCCG
DNA 2: GCGGATGGCTTAGAGCAGAATCGCCCTGCATAGCTCGATTTTTGCGGATG
B5: binds (C3Redβ [5]); binds (Redβ wt [6]).
